Laboratory results published in US20240091361A1, “T CELL RECEPTORS TARGETING RAS MUTATIONS AND USES THEREOF” (MEMORIAL SLOAN-KETTERING CANCER CENTER, priority 2021, published 2024).

Assays:
[1] = molecular target: T1, KRAS wild type (10-mer) peptide on HLA-A*11:01 (human); assay: cytokine release
T1 peptide: VVVGAGGVGK

[2] = molecular target: T2, GEM (also listed as SEQ ID NOs 82, 106, 130, 141) peptide on HLA-A*11:01 (human); assay: cytokine release
T2 peptide: AVFGAGGVGK

[3] = molecular target: T3, TUTLA (also listed as SEQ ID NO 134) peptide on HLA-A*11:01 (human); assay: cytokine release
T3 peptide: ISQGADGRGK

[4] = molecular target: T4, FRPD4 peptide on HLA-A*11:01 (human); assay: cytokine release
T4 peptide: KSKLADGEGK

[5] = molecular target: T5, TAF6 peptide on HLA-A*11:01 (human); assay: cytokine release
T5 peptide: GATTADGKGK

[6] = molecular target: T6, DCAF7 peptide on HLA-A*11:01 (human); assay: cytokine release
T6 peptide: ASVGADGSVR

[7] = molecular target: T7, ELP2 peptide on HLA-A*11:01 (human); assay: cytokine release
T7 peptide: VSAAADSAVR

[8] = molecular target: T8, FRPD1 peptide on HLA-A*11:01 (human); assay: cytokine release
T8 peptide: KVAAADGPAR

[9] = molecular target: T9, INO80 peptide on HLA-A*11:01 (human); assay: cytokine release
T9 peptide: SSLAPDSLVR

[10] = molecular target: T10, KI26A peptide on HLA-A*11:01 (human); assay: cytokine release
T10 peptide: PVAGPDGLSK

[11] = molecular target: T11, PRP4 peptide on HLA-A*11:01 (human); assay: cytokine release
T11 peptide: ASCAADGSVK

[12] = molecular target: T12, KRAS G12D (10-mer; the same sequence in NRAS G12D and HRAS G12D) peptide on HLA-A*11:01 (human); assay: multimer staining
T12 peptide: VVVGADGVGK

binding result [1]: no recognition
binding result [2]: no recognition
binding result [3]: no recognition
binding result [4]: no recognition
binding result [5]: no recognition
binding result [6]: no recognition
binding result [7]: no recognition
binding result [8]: no recognition
binding result [9]: no recognition
binding result [10]: no recognition
binding result [11]: no recognition
binding result [12]: recognises
B1: TCR 5 (TCR, V domains shown)
Valpha: GEDVEQSLFLSVREGDSSVINCTYTDSSSTYLYWYKQEPGAGLQLLTYIFSNMDMKQDQRLTVLLNKKDKHLSLRIADTQTGDSAIYFCAERDAGNNRKLIWGLGTSLAVNP
Vbeta: GAGVSQSPRYKVAKRGQDVALRCDPISGHVSLFWYQQALGQGPEFLTYFQNEAQLDKSGLPSDRFFAERPEGSVSTLKIQRTQQEDSAVYLCASSLEGGDTQYFGPGTRLTVL
